According to patent US20240368285A1 (HEFEI TG IMMUNOPHARMA, published 2024):

Tests used:
[1] = target: T1, MICB005α3-Fc; test: ELISA on coated MICB*005 α3-Fc (1 µg/ml), HRP anti-human Fab secondary, OD450
T1 construct: also called MICB*005-Fc; domain α3 of MICB-005 Fc fusion protein
Experimental: (§1) After the antibodies were added, signal intensity was used for judging the binding characteristics of the antibodies and MICA and MICB.
(§2) The fusion proteins (produced in the Applicant's laboratory; an amino acid sequence of MICA002α3-Fc is as set forth in SEQ ID NO: 22; an amino acid sequence of MICA005α3-Fc is as set forth in SEQ ID NO: 24; an amino acid sequence of MICA008α3-Fc is as set forth in SEQ ID NO: 25; an amino acid sequence of MICA004α3-Fc is as set forth in SEQ ID NO: 23; an amino acid sequence of MICB001α3-Fc is as set forth in SEQ ID NO: 26; and an amino acid sequence of MICB005α3-Fc is as set forth in SEQ ID NO: 27) were diluted to a concentration of 1 μg/ml with PBS and then added into a 96-well plate in a volume of 100 μl/well. The plate was placed at 4° C. overnight. The PBS in the 96-well plate was removed by sucking. After the plate was washed with PBST (that is, PBS having a pH value of 7.2 included 0.1 volume % of Tween 20) for 6 times, PBS containing 10% of BSA was added in a volume of 200 μl/well. The plate was incubated at 37° C. for 2 hours for blocking. The blocking solution was removed. […]

[2] = target: T2, MICA002α3-Fc (human); test: ELISA on coated MICA*002 α3-Fc (1 µg/ml), HRP anti-human Fab secondary, OD450
T2 construct: Produced in the Applicant's laboratory; also called MICA*002-Fc; domain α3 of MICA-002 Fc fusion protein
T2 sequence (chain, as listed by the source limits assumed): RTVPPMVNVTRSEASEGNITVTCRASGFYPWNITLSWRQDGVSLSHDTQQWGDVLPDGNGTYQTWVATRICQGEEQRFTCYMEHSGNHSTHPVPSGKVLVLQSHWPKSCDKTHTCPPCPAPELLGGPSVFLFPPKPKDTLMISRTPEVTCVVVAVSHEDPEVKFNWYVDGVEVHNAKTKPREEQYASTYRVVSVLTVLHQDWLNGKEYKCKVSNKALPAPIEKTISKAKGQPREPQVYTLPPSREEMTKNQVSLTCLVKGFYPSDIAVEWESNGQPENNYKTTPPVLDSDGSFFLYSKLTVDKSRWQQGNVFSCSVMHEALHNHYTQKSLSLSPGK
Experimental: as §1, §2

[3] = target: T3, MICA008α3-Fc (human); test: ELISA on coated MICA*008 α3-Fc (1 µg/ml), HRP anti-human Fab secondary, OD450
T3 construct: also called MICA*008-Fc; domain α3 of MICA-008 Fc fusion protein
T3 sequence (chain, as listed by the source limits assumed): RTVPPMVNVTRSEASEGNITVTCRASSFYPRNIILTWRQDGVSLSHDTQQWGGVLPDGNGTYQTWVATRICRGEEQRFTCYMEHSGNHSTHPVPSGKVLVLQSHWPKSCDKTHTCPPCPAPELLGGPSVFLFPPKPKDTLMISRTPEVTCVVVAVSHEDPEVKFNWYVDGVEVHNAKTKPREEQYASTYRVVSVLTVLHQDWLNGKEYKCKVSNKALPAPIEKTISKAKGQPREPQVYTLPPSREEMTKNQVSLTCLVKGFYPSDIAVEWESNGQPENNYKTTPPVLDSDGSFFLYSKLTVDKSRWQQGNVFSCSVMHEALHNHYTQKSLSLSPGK
Experimental: as §1, §2

[4] = target: T4, MICA005α3-Fc (human); test: ELISA on coated MICA*005 α3-Fc (1 µg/ml), HRP anti-human Fab secondary, OD450
T4 construct: also called MICA*005-Fc; domain α3 of MICA-005 Fc fusion protein
T4 sequence (chain, as listed by the source limits assumed): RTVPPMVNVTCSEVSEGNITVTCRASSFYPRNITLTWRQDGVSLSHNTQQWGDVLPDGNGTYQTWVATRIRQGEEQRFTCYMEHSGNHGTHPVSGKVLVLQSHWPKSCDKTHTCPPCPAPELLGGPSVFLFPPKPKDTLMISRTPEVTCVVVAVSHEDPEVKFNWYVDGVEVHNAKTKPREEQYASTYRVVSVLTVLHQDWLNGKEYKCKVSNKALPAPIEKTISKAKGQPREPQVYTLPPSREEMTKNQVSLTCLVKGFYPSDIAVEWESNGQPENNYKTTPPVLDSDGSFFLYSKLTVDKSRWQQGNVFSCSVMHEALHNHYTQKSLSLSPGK
Experimental: as §1, §2

[5] = target: T5, MICB001α3-Fc; test: ELISA on coated MICB*001 α3-Fc (1 µg/ml), HRP anti-human Fab secondary, OD450
T5 construct: also called MICB*001-Fc; domain α3 of MICB-001 Fc fusion protein
T5 sequence (chain, as listed by the source limits assumed): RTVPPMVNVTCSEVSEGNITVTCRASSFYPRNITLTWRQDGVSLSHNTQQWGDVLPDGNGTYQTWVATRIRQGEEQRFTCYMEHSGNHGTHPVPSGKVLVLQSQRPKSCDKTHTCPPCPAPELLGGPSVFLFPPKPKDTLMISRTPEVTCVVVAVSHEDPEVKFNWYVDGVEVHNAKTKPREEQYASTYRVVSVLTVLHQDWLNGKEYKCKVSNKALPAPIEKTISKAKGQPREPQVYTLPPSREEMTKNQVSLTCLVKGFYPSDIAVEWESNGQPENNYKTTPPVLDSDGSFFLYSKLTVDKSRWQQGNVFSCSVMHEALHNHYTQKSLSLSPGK
Experimental: as §1, §2

[6] = target: T6, MICA protein (SPR analyte) (human, UniProt Q29983 24-308, limits assumed); test: SPR, Biacore 8K, antibody captured on protein A chip, MICA as analyte
T6 construct: also called major histocompatibility complex class I chain related polypeptide A
T6 sequence: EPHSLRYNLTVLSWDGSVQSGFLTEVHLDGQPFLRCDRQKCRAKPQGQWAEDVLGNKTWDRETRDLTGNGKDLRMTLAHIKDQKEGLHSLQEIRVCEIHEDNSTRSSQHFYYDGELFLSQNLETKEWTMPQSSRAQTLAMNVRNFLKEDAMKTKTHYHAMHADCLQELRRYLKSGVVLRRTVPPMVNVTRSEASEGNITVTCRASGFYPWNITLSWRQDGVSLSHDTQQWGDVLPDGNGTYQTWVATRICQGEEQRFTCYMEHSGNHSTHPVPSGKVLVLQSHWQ
Experimental: In a Biacore 8K (Cytiva) system, the antibody was diluted to a concentration of 10 µg/mL with running buffer (HBS-EP), and the antibody was conjugated onto a protein A (Cytiva, 29127556) chip at a flow rate of […].
Kinetic and affinity data of binding of the maternal antibody h5A1 and the affinity maturation antibody h5A1002 and MICA were detected.

[7] = target: T7, MICA004α3-Fc (human); test: ELISA on coated MICA*004 α3-Fc (1 µg/ml), HRP anti-human Fab secondary, OD450
T7 construct: also called MICA*004-Fc; domain α3 of MICA-004 Fc fusion protein
T7 sequence (chain, as listed by the source limits assumed): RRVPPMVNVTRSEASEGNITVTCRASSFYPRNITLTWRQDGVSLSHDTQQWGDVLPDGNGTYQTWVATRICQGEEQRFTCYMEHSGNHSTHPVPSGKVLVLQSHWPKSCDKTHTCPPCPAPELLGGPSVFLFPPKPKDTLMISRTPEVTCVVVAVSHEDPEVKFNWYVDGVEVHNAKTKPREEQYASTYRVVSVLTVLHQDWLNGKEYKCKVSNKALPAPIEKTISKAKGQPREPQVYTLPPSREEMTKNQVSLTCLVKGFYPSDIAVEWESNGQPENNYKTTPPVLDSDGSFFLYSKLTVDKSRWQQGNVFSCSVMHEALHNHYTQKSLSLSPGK
Experimental: as §1, §2

[8] = target: T8, MICA on human tumor cells (A-375, A549, HCT-15, MDA-MB-231) (human, UniProt Q29983 24-383); test: flow cytometry on HCT-15 cells, Alexa-647 goat anti-human secondary, average fluorescence intensity
T8 construct: whole, on cells
T8 sequence (looked up): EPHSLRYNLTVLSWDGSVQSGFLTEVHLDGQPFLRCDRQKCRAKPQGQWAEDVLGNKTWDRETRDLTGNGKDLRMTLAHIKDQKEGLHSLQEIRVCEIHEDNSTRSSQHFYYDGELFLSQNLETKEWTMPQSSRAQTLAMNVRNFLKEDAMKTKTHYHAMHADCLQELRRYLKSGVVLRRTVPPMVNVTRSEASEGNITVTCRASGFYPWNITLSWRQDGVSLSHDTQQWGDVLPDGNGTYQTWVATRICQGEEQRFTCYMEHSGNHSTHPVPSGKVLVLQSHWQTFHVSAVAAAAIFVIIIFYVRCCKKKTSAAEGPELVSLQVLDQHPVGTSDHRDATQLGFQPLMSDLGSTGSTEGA
Experimental: (1) Tumor cells were diluted to a density of 2×10⁶/mL with PBS and then added into a 1.5 ml EP tube in a volume of 100 l/tube. 10 l/tube of goat serum was added into the EP tube; and blocking was conducted at 4° C. for 30 min. Antibody h5A1 (having a heavy chain sequence as set forth in SEQ ID NO: 11 and a light chain sequence as set forth in SEQ ID NO: 12), antibody h5A1002 (having a heavy chain sequence as set forth in SEQ ID NO: 13 and a light chain sequence as set forth in SEQ ID NO: 14), and control IgG1 (purchased from Biointron) were gradient-diluted (at a highest working concentration of 50 μg/ml, 10 gradients, diluted by 3 times for each gradient) and added. The tube was incubated at 4° C. for 30 min. 1 mL of PBS was added into the EP tube, and centrifugation was conducted 4° C. at a rate of 3,500 rpm for 5 min. The supernatant was removed. The EP tube was washed once with the PBS. The supernatant was removed after centrifugation. The cells were resuspended with PBS in a volume of 100 l/tube. An Alexa-647 labeled goat anti-human secondary antibody (purchased from Jackson lab) was added into the tube in a volume of 1 l/tube; and the plate was incubated in the dark at 4° C. for 30 min. The tube was washed twice with PBS, and the supernatant was removed after centrifugation. […]

T1 sequence (chain, as listed by the source limits assumed): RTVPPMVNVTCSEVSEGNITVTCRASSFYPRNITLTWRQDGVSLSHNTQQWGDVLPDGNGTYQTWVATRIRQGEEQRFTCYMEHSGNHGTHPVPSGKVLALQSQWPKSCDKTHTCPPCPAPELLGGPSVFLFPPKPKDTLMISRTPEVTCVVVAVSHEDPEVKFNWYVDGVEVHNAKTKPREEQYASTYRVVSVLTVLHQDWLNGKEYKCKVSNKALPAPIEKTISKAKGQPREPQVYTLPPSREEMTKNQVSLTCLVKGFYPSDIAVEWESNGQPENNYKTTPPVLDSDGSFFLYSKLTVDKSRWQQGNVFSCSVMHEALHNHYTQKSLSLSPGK

B1: maternal humanized antibody h5A1 (antibody, human IgG1, kappa, V domains shown)
VH: QVQLQESGPGLVKPSETLSLTCTVSGFSLTTYGVHWIRQPPGKGLEWIGMIWTDGTTDYNAAFISRVTISVDTSKNQFSLKLSSVTAADTAVYYCARKGHGYYYAMDYWGQGTLVTVSS
VL: EIVLTQSPGTLSLSPGERATLSCTASSSVSSSYLHWYQQKPGQAPRLLIYSTSNLASGIPDRFSGSGSGTDFTLTISRLEPEDFAVYYCHQYHRSPFTFGQGTKLEIKR
notes: Human IgG1, kappa; The full chains are stated for the ELISA and flow cytometry; also called h5A1-hIgG1; maternal antibody h5A1
EC50 (read off the curve) [1]: ~0.05 mg/L
EC50 (read off the curve) [2]: ~0.3 mg/L
binding result [3]: binds
EC50 (read off the curve) [4]: ~0.4 mg/L
EC50 (read off the curve) [5]: ~0.07 mg/L
Kd [6]: 0.215 µM
koff [6]: 0.000641 s⁻¹
kon [6]: 2970 M⁻¹ s⁻¹
EC50 (read off the curve) [7]: ~0.07 mg/L
EC50 (read off the curve) [8]: ~3 mg/L
